Data taken from the supplement of paper PMC11136658.

Test system: peptide library, one residue held at a place counted from the Y acceptor
Assay: relative phosphorylation of the sub-library (ratio to the mean residue at this position); higher = residue favoured
Summary of the method: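 Peptide library mixtures, biotinylated and centred on Tyr, each fixed one residue at one position from −5 to +5. Purified recombinant kinases were incubated with them for 90 min in 384-well plates alongside 50 μM ATP and γ-32P-ATP, and the captured, rinsed peptides on streptavidin membranes were measured by phosphorimaging and ImageQuant. Normalization divided each position's intensities by the sum of its 18 randomized residues (16 for the Ser/Thr-free library) and multiplied by that number, so that values give phosphorylation relative to the mean randomized residue.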

Sequence of HCK, construct: aa230-497, human (P08631 230-497, looked up): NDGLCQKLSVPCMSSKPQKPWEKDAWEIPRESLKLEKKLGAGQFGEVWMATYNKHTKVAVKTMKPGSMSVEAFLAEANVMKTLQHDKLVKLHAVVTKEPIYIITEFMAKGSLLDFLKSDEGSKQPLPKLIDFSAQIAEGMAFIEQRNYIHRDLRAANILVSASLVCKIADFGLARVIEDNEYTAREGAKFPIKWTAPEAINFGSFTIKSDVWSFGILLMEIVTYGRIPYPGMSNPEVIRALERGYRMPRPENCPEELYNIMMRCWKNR
Sequence of IGF1R, construct: aa960-end, human (P08069 960-1367, looked up): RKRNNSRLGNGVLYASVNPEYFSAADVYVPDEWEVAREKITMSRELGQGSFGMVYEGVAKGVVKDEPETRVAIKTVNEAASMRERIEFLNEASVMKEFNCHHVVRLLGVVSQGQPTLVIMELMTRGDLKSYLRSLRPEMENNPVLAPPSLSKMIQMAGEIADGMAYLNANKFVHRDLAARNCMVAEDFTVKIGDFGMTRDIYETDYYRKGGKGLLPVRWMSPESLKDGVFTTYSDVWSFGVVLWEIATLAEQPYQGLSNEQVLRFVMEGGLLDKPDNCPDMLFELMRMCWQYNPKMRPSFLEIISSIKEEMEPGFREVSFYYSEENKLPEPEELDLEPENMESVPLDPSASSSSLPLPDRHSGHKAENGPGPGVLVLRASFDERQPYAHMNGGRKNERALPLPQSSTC

HCK, construct: aa230-497, human (from UniProt P08631)
relative phosphorylation
Conditions | at +1 | at +2 | at +3 | at +4 | at +5 | at -1 | at -2 | at -3 | at -4 | at -5
A fixed | 1.66 | 0.982 | 0.656 | 0.876 | 1.06 | 0.652 | 1.08 | 0.95 | 1.15 | 1.1
D fixed | 0.917 | 0.585 | 0.323 | 0.623 | 0.676 | 0.844 | 1.29 | 1.43 | 1.16 | 1.18
E fixed | 1.55 | 1.19 | 0.316 | 0.766 | 0.746 | 1.04 | 1.49 | 1.65 | 1.47 | 1.01
F fixed | 0.785 | 1 | 2.12 | 1.08 | 1.05 | 1.09 | 0.717 | 1.11 | 0.966 | 0.987
G fixed | 2.28 | 0.813 | 0.862 | 1.11 | 1.09 | 0.456 | 1.31 | 1.02 | 1.31 | 1.18
H fixed | 0.812 | 0.659 | 0.992 | 1.09 | 0.964 | 0.768 | 0.915 | 1.01 | 0.85 | 0.907
I fixed | 0.815 | 1.15 | 1.84 | 0.87 | 0.769 | 2.91 | 0.843 | 0.718 | 0.977 | 0.922
K fixed | 0.253 | 0.807 | 0.675 | 1.31 | 1.27 | 0.259 | 0.633 | 0.543 | 0.629 | 0.91
L fixed | 0.816 | 1.03 | 1.49 | 0.907 | 0.984 | 2.15 | 1 | 0.956 | 1.18 | 1.09
M fixed | 1.37 | 1.13 | 1.1 | 1.31 | 1.06 | 1.12 | 0.808 | 0.964 | 1.11 | 1.1
N fixed | 0.612 | 0.95 | 0.477 | 0.801 | 0.853 | 0.414 | 1.24 | 1.15 | 0.817 | 0.995
P fixed | 0.265 | 0.975 | 0.758 | 0.902 | 1.26 | 0.769 | 1.06 | 1.06 | 1.15 | 1.16
Q fixed | 0.923 | 0.888 | 0.508 | 0.99 | 0.731 | 0.521 | 1.04 | 0.867 | 0.934 | 0.99
R fixed | 0.369 | 0.993 | 1.18 | 1.49 | 1.51 | 0.228 | 0.667 | 0.58 | 0.685 | 0.772
S fixed | 1.12 | 1.17 | 0.663 | 0.972 | 1.05 | 0.489 | 1.18 | 1.02 | 0.761 | 0.942
T fixed | 0.97 | 1.42 | 0.706 | 0.924 | 0.998 | 1.35 | 1.01 | 0.961 | 0.709 | 0.845
V fixed | 1.14 | 1.17 | 1.36 | 0.872 | 0.811 | 2.24 | 0.95 | 0.807 | 0.925 | 0.912
W fixed | 1.34 | 1.08 | 1.98 | 1.11 | 1.12 | 0.698 | 0.771 | 1.2 | 1.21 | 0.99
pThr fixed | 0.949 | 1.18 | 0.296 | 0.431 | 0.421 | 2.4 | 1.22 | 1.12 | 1.05 | 1.09
pTyr fixed | 1.46 | 1.61 | 0.497 | 0.628 | 0.569 | 1.09 | 1.21 | 1.37 | 1.4 | 1.1

IGF1R, construct: aa960-end, human (from UniProt P08069)
relative phosphorylation
Conditions | at +1 | at +2 | at +3 | at +4 | at +5 | at -1 | at -2 | at -3 | at -4 | at -5
A fixed | 1.7 | 0.629 | 0.386 | 0.818 | 0.794 | 1.07 | 1.11 | 0.892 | 1.01 | 0.847
D fixed | 0.473 | 0.626 | 0.286 | 1.12 | 0.708 | 3.28 | 1.46 | 1.52 | 1.41 | 1.33
E fixed | 0.838 | 1.42 | 0.255 | 1.68 | 0.671 | 1.61 | 1.71 | 1.77 | 1.86 | 1.05
F fixed | 1.68 | 1.48 | 2 | 1.45 | 2.54 | 0.717 | 0.697 | 1.1 | 1.05 | 1.01
G fixed | 0.585 | 0.273 | 0.367 | 0.844 | 0.83 | 0.547 | 1.18 | 0.991 | 1.03 | 1.06
H fixed | 1.42 | 0.838 | 1.57 | 1.19 | 1.03 | 0.864 | 0.937 | 1.05 | 0.915 | 0.963
I fixed | 1.28 | 1.15 | 1.94 | 0.843 | 0.91 | 1.2 | 0.736 | 0.654 | 0.819 | 0.997
K fixed | 0.216 | 0.408 | 0.307 | 0.679 | 0.648 | 0.21 | 0.8 | 0.711 | 0.863 | 0.983
L fixed | 1.08 | 1.59 | 1.35 | 0.694 | 1.02 | 0.964 | 0.839 | 0.798 | 0.886 | 0.916
M fixed | 2.42 | 1.67 | 1.43 | 1.01 | 0.951 | 0.744 | 0.651 | 0.853 | 0.875 | 0.954
N fixed | 0.319 | 0.74 | 0.288 | 0.787 | 0.764 | 1.83 | 1.34 | 1.4 | 0.971 | 1.12
P fixed | 0.311 | 0.589 | 0.291 | 0.796 | 1.62 | 1.11 | 1.1 | 0.914 | 0.98 | 1.06
Q fixed | 0.646 | 0.733 | 0.353 | 1.12 | 0.674 | 0.663 | 1.16 | 0.922 | 1.14 | 1.09
R fixed | 0.178 | 0.588 | 0.433 | 0.799 | 0.914 | 0.239 | 0.893 | 0.899 | 0.977 | 1.12
S fixed | 0.879 | 0.659 | 0.423 | 0.883 | 0.841 | 0.75 | 1.16 | 1.01 | 0.82 | 0.858
T fixed | 0.755 | 0.661 | 0.525 | 0.86 | 0.704 | 0.778 | 0.86 | 0.973 | 0.645 | 0.864
V fixed | 1.51 | 1.13 | 1.21 | 0.873 | 0.695 | 0.966 | 0.739 | 0.652 | 0.787 | 0.788
W fixed | 1.71 | 2.83 | 4.6 | 1.55 | 1.68 | 0.451 | 0.63 | 0.901 | 0.967 | 0.983
pThr fixed | 1.78 | 0.865 | 0.247 | 0.783 | 0.704 | 2.1 | 1.17 | 1.37 | 1.18 | 1.1
pTyr fixed | 1.8 | 2.89 | 0.461 | 1.93 | 0.573 | 6.45 | 2.12 | 1.56 | 1.65 | 1.48
